Test results: US20180134804A1 (Memorial Sloan Kettering, published 2018)

What was measured:
[1] = biological target: T1, HLA-A0201 on T2 cells without added peptide (human); test: flow cytometry of T2 cells without peptide
T1 construct: Used as the negative target (T2 cells alone) and as the HLA-A0201 partner of the free peptides in the T2 stabilization assay; also called T2 alone; empty T2 cells

[2] = biological target: T2, Ras9-G12V peptide/HLA-A0201 complex on peptide-pulsed T2 cells (human); test: flow cytometry, indirect staining of T2 cells pulsed with 50 ug/ml peptide
T2 construct: also called K-Ras9 G12V/HLA A0201; T2-014A1mut

[3] = biological target: T3, Ras9-WT peptide/HLA-A0201 complex on peptide-pulsed T2 cells (human); test: as above
T3 construct: also called T2-0141WT

[4] = biological target: RAS10-G13A peptide/HLA-A0201 complex on peptide-pulsed T2 cells; test: flow cytometry of T2 cells pulsed with peptide
[5] = biological target: RAS10-V9A peptide/HLA-A0201 complex on peptide-pulsed T2 cells; test: flow cytometry of T2 cells pulsed with peptide
[6] = biological target: T4, biotinylated Ras10-G12V/HLA-A0201 complex monomer (human, chain 1: C-terminal BirA substrate peptide (letters not given), enzymatically biotinylated by BirA); test: BLI (ForteBio Octet QK), biotinylated pMHC on streptavidin sensor, mAb at 10 µg/mL, 1:1 model partial fit
T4 construct: also called Ras G12V/HLA-A0201; Ras-G12V/HLA A0201 complex monomer; not shown: the BirA substrate peptide (BSP) at the C-terminus of the heavy chain

[7] = biological target: T5, biotinylated Ras10-WT/HLA-A0201 complex monomer (human, chain 1: C-terminal BirA substrate peptide (letters not given), enzymatically biotinylated by BirA); test: as above
T5 construct: also called Ras wt/HLA-A0201; not shown: the BirA substrate peptide (BSP) at the C-terminus of the heavy chain

[8] = biological target: T6, Ras10-G12C peptide/HLA-A0201 complex on peptide-pulsed T2 cells (human); test: flow cytometry, indirect staining of peptide-pulsed T2 cells (peptide 50 µg/ml)
T6 construct: also called Ras-G12C

[9] = biological target: Ras10-G12D peptide/HLA-A0201 complex on peptide-pulsed T2 cells (human); test: as above
[10] = biological target: T1, HLA-A0201 on T2 cells without added …; test: T2 stabilization control, flow cytometry: BB7 staining of T2 cells pulsed with the peptide
Method: The binding of the mAb to the peptide/HLA-A2 complex was measured by direct staining with mAbs conjugated to APC or by indirect staining with mAbs, followed by secondary goat anti-human IgG1/FITC mAb. The binding of the mAbs was measured by flow cytometry on a FACScalibur (Becton Dickenson) and analyzed with FlowJo 9.6.3 software. […] (F) Antibody by the above peptides to T2 cells was measured.

[11] = biological target: T1, HLA-A0201 on T2 cells without added …; test: as above; remark: listed apart in the source
Method: The binding of the mAb to the peptide/HLA-A2 complex was measured by indirect (A) or indirect staining with mAbs conjugated to APC (B).

[12] = biological target: T7, Ras10-WT peptide/HLA-A0201 complex on peptide-pulsed T2 cells (human); test: flow cytometry of T2 cells pulsed with peptide
T7 construct: also called Ras WT; T2-0142WT

[13] = biological target: T5, biotinylated Ras10-WT/HLA-A0201 complex …; test: BLI (ForteBio Octet QK), biotinylated pMHC on streptavidin sensor
[14] = biological target: T8, Ras10-G12V peptide with alanine substitution at position 12/HLA-A0201 complex on peptide-pulsed T2 cells (human); test: flow cytometry of T2 cells pulsed with peptide
T8 construct: Position 12 counts on the Ras protein; also called peptide containing an alanine substitution at position 12

[15] = biological target: RAS10-G10A peptide/HLA-A0201 complex on peptide-pulsed T2 cells; test: flow cytometry of T2 cells pulsed with peptide
[16] = biological target: T3, Ras9-WT peptide/HLA-A0201 complex on …; test: flow cytometry, scFv phage on peptide-loaded T2 cells, anti-M13 detection
[17] = biological target: T7, Ras10-WT peptide/HLA-A0201 complex on …; test: as above
[18] = biological target: T1, HLA-A0201 on T2 cells without added …; test: flow cytometry, scFv phage on T2 cells, anti-M13 detection

B1: Ras mAb #7, full-length human IgG1 (antibody, V domains shown)
VH: EVQLVESGAEVKEPGSSVKVSCKASGGTFSSYGISWIRQAPGQGLEWMGEIIPIFGTPNYAQKFQGRVTITADESTSTAYVELSSLRSDDTAVYYCARSYYGYFDGWGQGTLVTVSS
VL: DIQMTQSPSSLSASVGDRVTITCQASQDISNYLNWYQQKPGKAPKLLIYDASNLETGVPSRFSGSGSGTDFTFTISSLQPDDFATYYCQQYKSYPLTFGGGTKVEIKR
notes: also called clone #7; Ras antibody #7
binding result [1]: no binding (tested: 10 ug/ml) | binding result [2]: no binding (tested: 10 ug/ml) | binding result [3]: no binding (tested: 10 ug/ml) | binding result [4]: binds | binding result [5]: binds | Kd [6]: 8.77 nM | koff [6]: 0.000746 s⁻¹ | kon [6]: 85000 M⁻¹ s⁻¹ | Kd [7]: 65.1 nM | koff [7]: 0.00153 s⁻¹ | kon [7]: 23400 M⁻¹ s⁻¹ | binding result [8]: no binding | binding result [9]: no binding

B2: RAS10-G12S peptide (peptide)
peptide: KLVVVGASGV
notes: peptide of the complex m14; also called R10-G12S
binding result [10]: binds

B3: Ras10-A11G peptide (peptide)
peptide: KLVVVGGVGV
notes: Position 11 counts on the Ras protein
binding result [10]: binds

B4: RAS9-WT peptide (peptide)
peptide: LVVVGAGGV
notes: Free synthetic peptide
binding result [11]: binds

B5: Ras mAb #2, full-length human IgG1 (antibody, V domains shown)
VH: QVQLVQSGAEVKKPGSSVKVSCKASGGTFSSYTINWVRQAPGQGLEWMGGFIPISGTVNYAQKFQGRVTITADESTSTAYMELSSLRSEDTAVYYCARPLDWTEDIWGQGTLVTVSS
VL: QSVLTQPPSVSGAPGQRVTISCTGSSSNIGAGYDVHWYQQLPGTAPKLLIYGNSNRPSGVPDRFSGSKSGTSASLAITGLQAEDEADYYCQSYDSSLSGSVFGTGTKVTVLG
notes: also called clone #2; Ras antibody #2
binding result [1]: no binding (tested: 10 ug/ml) | binding result [3]: no binding (tested: 10 ug/ml) | binding result [12]: no binding (tested: 10 ug/ml) | Kd [6]: 8.88 nM | binding result [13]: no binding (tested: 10 µg/mL) | binding result [9]: no binding

B6: Ras mAb #4, full-length human IgG1 (antibody, V domains shown)
VH: EVQLVQSGAEVKKPGASVKVSCKASGYTFTAYYLHWLRQAPGQGLEWMGWMNTNNGATRYAQKFQDRVTMTRDTSINTAYMEMSGLSSDDTAMYYCARGDISQDFADVWGQGTLVTVSS
VL: NFMLTQPHSVSESPGKTVTISCTGSSGSIASNYVQWYQQRPGSAPTILIYEDNKRPSGVPDRFSGSIDSSSNSASLTISGLKTGDEADYYCQSYDDINHWVFGGGTKLTVLG
notes: also called clone #4; Ras antibody #4
binding result [1]: no binding (tested: 10 ug/ml) | binding result [2]: no binding (tested: 10 ug/ml) | binding result [3]: no binding (tested: 10 ug/ml) | binding result [14]: no binding (tested: 10 ug/ml) | binding result [12]: no binding (tested: 10 ug/ml) | binding result [15]: no binding (tested: 10 ug/ml) | Kd [6]: 9.19 nM | koff [6]: 0.00363 s⁻¹ | kon [6]: 396000 M⁻¹ s⁻¹ | binding result [13]: no binding (tested: 10 µg/mL) | binding result [8]: no binding | binding result [9]: no binding

B7: scFv phage clone #2 (scFv)
scFv: QSVLTQPPSVSGAPGQRVTISCTGSSSNIGAGYDVHWYQQLPGTAPKLLIYGNSNRPSGVPDRFSGSKSGTSASLAITGLQAEDEADYYCQSYDSSLSGSVFGTGTKVTVLGSRGGGGSGGGGSGGGGSLEMAVQLVQSGAEVKKPGSSVKVSCKASGGTFSSYTINWVRQAPGQGLEWMGGFIPISGTVNYAQKFQGRVTITADESTSTAYMELSSLRSEDTAVYYCARPLDWTEDIWGQGTLVTVSS
notes: also called K-Ras G12V/HLA A0201 specific phage clone
binding result [16]: no binding | binding result [17]: no binding | binding result [18]: no binding
